What was measured:
[1] = target: Flag-tagged CTC1 ΔB (human) (UniProt Q2NKJ3); assay: co-IP
CTC1 A227V;STN1;TEN1 = CTC1 A227V;STN1;TEN1 (human?;human?;human?, UniProt Q2NKJ3;Q9H668;Q86WV5 1-1217;1-368;1-123, A227V||); assay: EMSA
CTC1 V259M;STN1;TEN1 = CTC1 V259M;STN1;TEN1 (human?;human?;human?, UniProt Q2NKJ3;Q9H668;Q86WV5 1-1217;1-368;1-123, V259M||); assay: EMSA
CTC1 V259M;STN1;TEN1, sequence (Q2NKJ3 whole entry V259M, chain 1 of 3): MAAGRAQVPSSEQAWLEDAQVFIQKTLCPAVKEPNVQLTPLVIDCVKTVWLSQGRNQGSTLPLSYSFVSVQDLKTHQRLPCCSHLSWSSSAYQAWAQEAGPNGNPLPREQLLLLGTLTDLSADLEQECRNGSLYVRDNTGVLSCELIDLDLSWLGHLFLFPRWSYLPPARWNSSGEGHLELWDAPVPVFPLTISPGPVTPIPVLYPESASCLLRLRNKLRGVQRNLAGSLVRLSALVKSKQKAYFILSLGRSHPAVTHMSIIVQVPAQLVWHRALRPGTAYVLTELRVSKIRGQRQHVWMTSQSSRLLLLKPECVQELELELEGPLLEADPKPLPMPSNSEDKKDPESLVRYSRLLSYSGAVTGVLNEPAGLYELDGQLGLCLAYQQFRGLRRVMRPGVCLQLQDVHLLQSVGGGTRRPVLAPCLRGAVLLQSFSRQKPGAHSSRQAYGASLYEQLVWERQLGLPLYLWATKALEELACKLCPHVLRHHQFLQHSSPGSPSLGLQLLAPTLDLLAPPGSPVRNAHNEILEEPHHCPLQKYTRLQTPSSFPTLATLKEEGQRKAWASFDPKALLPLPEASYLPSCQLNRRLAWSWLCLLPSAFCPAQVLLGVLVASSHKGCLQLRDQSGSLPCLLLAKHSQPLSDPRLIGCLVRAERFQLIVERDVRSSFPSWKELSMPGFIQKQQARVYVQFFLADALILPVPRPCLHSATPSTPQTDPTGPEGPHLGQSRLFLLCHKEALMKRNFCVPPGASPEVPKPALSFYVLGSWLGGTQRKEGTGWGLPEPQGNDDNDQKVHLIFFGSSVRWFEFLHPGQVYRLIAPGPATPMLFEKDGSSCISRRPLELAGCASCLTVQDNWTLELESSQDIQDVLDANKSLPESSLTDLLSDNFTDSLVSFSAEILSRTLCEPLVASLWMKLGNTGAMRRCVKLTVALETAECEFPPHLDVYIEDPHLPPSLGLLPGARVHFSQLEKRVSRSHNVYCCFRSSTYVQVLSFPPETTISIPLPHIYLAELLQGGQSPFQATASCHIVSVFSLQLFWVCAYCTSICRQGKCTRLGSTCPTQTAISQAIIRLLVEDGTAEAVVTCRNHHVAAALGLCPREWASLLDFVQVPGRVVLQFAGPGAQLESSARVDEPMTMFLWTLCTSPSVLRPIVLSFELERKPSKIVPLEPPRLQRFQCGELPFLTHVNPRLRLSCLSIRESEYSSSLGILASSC
CTC1 V259M;STN1;TEN1, sequence (Q9H668 whole entry, chain 2 of 3): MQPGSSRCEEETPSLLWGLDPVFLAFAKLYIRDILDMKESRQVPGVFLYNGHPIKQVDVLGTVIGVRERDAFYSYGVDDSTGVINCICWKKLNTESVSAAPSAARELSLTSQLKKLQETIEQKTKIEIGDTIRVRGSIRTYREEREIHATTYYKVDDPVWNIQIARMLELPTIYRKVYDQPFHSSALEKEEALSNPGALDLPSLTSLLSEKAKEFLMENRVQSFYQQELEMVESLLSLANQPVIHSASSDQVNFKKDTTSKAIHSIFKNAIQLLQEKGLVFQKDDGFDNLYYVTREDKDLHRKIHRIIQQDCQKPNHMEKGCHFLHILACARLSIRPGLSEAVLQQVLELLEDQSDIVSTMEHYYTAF
CTC1 V259M;STN1;TEN1, sequence (Q86WV5 whole entry, chain 3 of 3): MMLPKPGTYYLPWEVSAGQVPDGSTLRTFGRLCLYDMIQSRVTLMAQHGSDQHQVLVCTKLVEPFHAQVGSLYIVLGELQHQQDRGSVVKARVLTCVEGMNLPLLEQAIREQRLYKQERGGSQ

CTC1 A227V;STN1;TEN1, sequence (Q2NKJ3 whole entry A227V, chain 1 of 3): as the sequence (Q2NKJ3 whole entry V259M, chain 1 of 3) above, with A227V, M259V counted along it
CTC1 A227V;STN1;TEN1, sequence (Q9H668 whole entry, chain 2 of 3): as the sequence (Q9H668 whole entry, chain 2 of 3) above
CTC1 A227V;STN1;TEN1, sequence (Q86WV5 whole entry, chain 3 of 3): as the sequence (Q86WV5 whole entry, chain 3 of 3) above
Myc-tagged TPP1, sequence (Q96AP0 whole entry): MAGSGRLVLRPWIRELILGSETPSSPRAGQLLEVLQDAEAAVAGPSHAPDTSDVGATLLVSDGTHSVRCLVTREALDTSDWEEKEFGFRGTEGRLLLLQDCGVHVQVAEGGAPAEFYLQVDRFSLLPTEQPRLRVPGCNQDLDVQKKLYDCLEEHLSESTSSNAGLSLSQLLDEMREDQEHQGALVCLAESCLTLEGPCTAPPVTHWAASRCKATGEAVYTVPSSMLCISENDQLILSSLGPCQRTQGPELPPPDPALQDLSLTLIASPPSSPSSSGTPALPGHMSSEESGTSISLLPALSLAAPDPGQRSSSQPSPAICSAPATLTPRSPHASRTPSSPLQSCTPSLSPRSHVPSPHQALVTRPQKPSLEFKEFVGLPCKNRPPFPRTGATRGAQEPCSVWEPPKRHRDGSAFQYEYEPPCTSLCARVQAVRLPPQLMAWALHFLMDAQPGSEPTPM
Flag-tagged CTC1 ΔB (human), sequence (Q2NKJ3 whole entry, stated change not applied): as the sequence (Q2NKJ3 whole entry V259M, chain 1 of 3) above, with M259V counted along it

| Molecule | percent decrease of TPP1 co-immunoprecipitated, against WT CTC1 [1] [%] | binding result (CTC1 A227V;STN1;TEN1) | binding result (CTC1 V259M;STN1;TEN1) |
| --- | --- | --- | --- |
| Myc-tagged TPP1 (from UniProt Q96AP0 1-458) (natural protein) | 44 |  |  |
| GGTTAGGGTTAGGGTTAG (ssDNA) [Tel-18 CY7] |  | binds | binds |
